Target: recombinant HIV-1 trimeric spike (BG505 SOSIP.664) (HIV-1)

B1: ODIN-1 (VHH-72.18 with UL-CDR3 from NC-Cow1 bovine IgG in FR2 loop) (bispecific antibody, V domains shown)
VH: MGWFRQTNKKECPEDYTYNPRCPQQYGWSDCDCMGDRFGGYCRQDGCSNYIHRSTREFVATISWSGGSTYYTDSVKGRFTISRDNAKNTVYLQMNSLKPDDTAVYYCAAAGLGTVVSEWDYDYDYWGQGTQVTVSS
Kd: 30 nM
